Assay [1] has as its target Rpt2 (subunit of the base) (yeast, UniProt P40327 1-437). In words: cryo-EM structure.
Assay [2] concerns the target T1, Rpt1 (subunit of the base) (yeast, UniProt P33299 1-467).
T1 sequence: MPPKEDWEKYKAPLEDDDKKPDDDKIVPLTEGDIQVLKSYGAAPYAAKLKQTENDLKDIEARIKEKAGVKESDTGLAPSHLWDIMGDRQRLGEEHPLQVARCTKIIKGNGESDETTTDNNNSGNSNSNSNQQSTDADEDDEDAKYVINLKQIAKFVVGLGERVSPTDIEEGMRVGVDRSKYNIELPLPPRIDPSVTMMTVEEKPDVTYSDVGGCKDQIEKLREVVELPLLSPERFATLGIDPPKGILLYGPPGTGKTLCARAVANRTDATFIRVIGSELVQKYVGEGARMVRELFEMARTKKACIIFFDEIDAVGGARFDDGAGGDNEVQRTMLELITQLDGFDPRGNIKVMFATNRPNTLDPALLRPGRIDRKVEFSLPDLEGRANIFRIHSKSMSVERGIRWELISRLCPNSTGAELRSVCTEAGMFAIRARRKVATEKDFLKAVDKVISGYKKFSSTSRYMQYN
The assay can be described thus: cryo-EM structure.

The values that follow come from PMC3687086 (Nature, 2013).

Rpt2 (subunit of the base), sequence (P40327 whole entry): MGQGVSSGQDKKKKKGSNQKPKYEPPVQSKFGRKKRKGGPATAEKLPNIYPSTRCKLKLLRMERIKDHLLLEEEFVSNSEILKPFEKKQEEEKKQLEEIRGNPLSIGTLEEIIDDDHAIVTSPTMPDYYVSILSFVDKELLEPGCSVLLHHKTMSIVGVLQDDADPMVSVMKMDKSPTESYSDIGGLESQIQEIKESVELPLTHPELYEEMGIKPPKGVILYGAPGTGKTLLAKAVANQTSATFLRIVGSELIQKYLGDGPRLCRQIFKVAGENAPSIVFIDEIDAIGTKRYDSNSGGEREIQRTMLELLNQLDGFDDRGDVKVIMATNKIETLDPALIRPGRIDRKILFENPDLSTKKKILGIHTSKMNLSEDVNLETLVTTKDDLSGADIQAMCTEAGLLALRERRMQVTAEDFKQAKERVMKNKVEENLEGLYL

B1: CP subunit α3 (natural protein)
chain: MGSRRYDSRTTIFSPEGRLYQVEYALESISHAGTAIGIMASDGIVLAAERKVTSTLLEQDTSTEKLYKLNDKIAVAVAGLTADAEILINTARIHAQNYLKTYNEDIPVEILVRRLSDIKQGYTQHGGLRPFGVSFIYAGYDDRYGYQLYTSNPSGNYTGWKAISVGANTSAAQTLLQMDYKDDMKVDDAIELALKTLSKTTDSSALTYDRLEFATIRKGANDGEVYQKIFKPQEIKDILVKTGITKKDEDEEADEDMK
In the case of B1, in assay [1], the binding result was “binds”.

B2: CP subunit α4 (natural protein)
chain: MSGYDRALSIFSPDGHIFQVEYALEAVKRGTCAVGVKGKNCVVLGCERRSTLKLQDTRITPSKVSKIDSHVVLSFSGLNADSRILIEKARVEAQSHRLTLEDPVTVEYLTRYVAGVQQRYTQSGGVRPFGVSTLIAGFDPRDDEPKLYQTEPSGIYSSWSAQTIGRNSKTVREFLEKNYDRKEPPATVEECVKLTVRSLLEVVQTGAKNIEITVVKPDSDIVALSSEEINQYVTQIEQEKQEQQEQDKKKKSNH
On to B2, for which the binding result in assay [2] and in assay [1] was “binds” each time.
